Consider 3 molecules from PMC4163024 (Structure (London, England : 1993), 2014).

The series “crystal structure” deals with the molecule itself. Put plainly: crystal structure.
The next series has as its target recombinant LTβR-Ig (UniProt P36941 31-227). Put plainly: SPR. (In general: Surface plasmon resonance follows binding to a sensor surface in real time, without labels.)
For another series, the target named is T1, recombinant DcR3-Ig (human, UniProt O95407 30-300).
T1 sequence (looked up): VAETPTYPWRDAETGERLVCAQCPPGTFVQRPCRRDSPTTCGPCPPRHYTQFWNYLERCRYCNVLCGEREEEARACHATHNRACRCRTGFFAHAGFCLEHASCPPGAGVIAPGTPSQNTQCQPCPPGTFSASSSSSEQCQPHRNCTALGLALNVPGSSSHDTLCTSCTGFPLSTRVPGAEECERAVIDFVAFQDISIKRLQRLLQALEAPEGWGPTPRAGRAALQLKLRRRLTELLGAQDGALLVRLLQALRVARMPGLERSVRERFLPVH
The experiment in a line: SPR.

What is called stoichiometry N is a count of units in the complex or per binding partner. The term Kd denotes the concentration at which binding is half-saturated.

Residue numbers refer to the chain shown, from its start.

Sequence of recombinant LTβR-Ig (P36941 31-227): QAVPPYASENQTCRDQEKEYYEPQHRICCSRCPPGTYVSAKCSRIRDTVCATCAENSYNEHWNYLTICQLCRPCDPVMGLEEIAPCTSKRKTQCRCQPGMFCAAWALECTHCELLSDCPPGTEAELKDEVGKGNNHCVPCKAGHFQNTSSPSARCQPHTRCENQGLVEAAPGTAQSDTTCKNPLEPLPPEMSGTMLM

B1: Soluble LIGHT (residues L83-V240), wild type (ligand, human, UniProt O43557 83-240, looked up)
chain: LIQERRSHEVNPAAHLTGANSSLTGSGGPLLWETQLGLAFLRGLSYHDGALVVTKAGYYYIYSKVQLGGVGCPLGLASTITHGLYKRTPRYPEELELLVSQQSPCGRATSSSRVWWDSSFLGGVVHLEAGEKVVVRVLDERLVRLRDGTRSYFGAFMV
For B1, the “stoichiometry N” value in “crystal structure” was 3. Also, the results for the Kd with recombinant LTβR-Ig and in the series with recombinant DcR3-Ig were 11.2 ± 0.6 nM and 16.7 ± 0.3 nM, respectively.

B2: LIGHT mutant 2 (EF loop 195-198 replaced by the TL1A loop) (ligand, human)
chain: B1 chain with R113S, V114N, W116F
Take B2: the dissociation constant (Kd) in the series with recombinant LTβR-Ig came to 17.2 ± 14 nM; with recombinant DcR3-Ig, 153 ± 54 nM.

B3: LIGHT mutant 1 (GH loop 226-231 replaced by the TL1A loop) (ligand, human)
chain: B1 chain with R144D, L145Y, R146T, D147K, G148E, T149D
For B3, the dissociation constant (Kd) with recombinant LTβR-Ig came out at 21 ± 3.3 nM; with recombinant DcR3-Ig it was 36 ± 1.8 nM.
